Assay results: paper PMC12187869, “Transport of the uremic toxin symmetric dimethylarginine (SDMA) by renal transport proteins” (Amino Acids, 2025)

Substrate: CN=C(NC)NCCC[C@H](N)C(=O)O
Assay: [3H]SDMA uptake kinetics (Km) and efflux in HEK-OATP4C1 cells
Assay type: cell-based, Homo sapiens

B1: OATP4C1 (Homo sapiens) (protein)
chain: MKSAKGIENLAFVPSSPDILRRLSASPSQIEVSALSSDPQRENSQPQELQKPQEPQKSPEPSLPSAPPNVSEEKLRSLSLSEFEEGSYGWRNFHPQCLQRCNTPGGFLLHYCLLAVTQGIVVNGLVNISISTVEKRYEMKSSLTGLISSSYDISFCLLSLFVSFFGERGHKPRWLAFAAFMIGLGALVFSLPQFFSGEYKLGSLFEDTCVTTRNSTSCTSSTSSLSNYLYVFILGQLLLGAGGTPLYTLGTAFLDDSVPTHKSSLYIGTGYAMSILGPAIGYVLGGQLLTIYIDVAMGESTDVTEDDPRWLGAWWIGFLLSWIFAWSLIIPFSCFPKHLPGTAEIQAGKTSQAHQSNSNADVKFGKSIKDFPAALKNLMKNAVFMCLVLSTSSEALITTGFATFLPKFIENQFGLTSSFAATLGGAVLIPGAALGQILGGFLVSKFRMTCKNTMKFALFTSGVALTLSFVFMYAKCENEPFAGVSESYNGTGELGNLIAPCNANCNCSRSYYYPVCGDGVQYFSPCFAGCSNPVAHRKPKVYYNCSCIERKTEITSTAETFGFEAKAGKCETHCAKLPIFLCIFFIVIIFTFMAGTPITVSILRCVNHRQRSLALGIQFMVLRLLGTIPGPIIFGFTIDSTCILWDINDCGIKGACWIYDNIKMAHMLVAISVTCKVITMFFNGFAIFLYKPPPSATDVSFHKENAVVTNVLAEQDLNKIVKEG
notes: HEK293 cells stably expressing human OATP4C1
Km: 70 µM
